Measurements from US10441663B2, “Methods for treating cancer” (Bicycle Therapeutics Limited, priority 2016, dated 2019).
*1 amine or outer side, *2 acyl side, *3 side chain or, on linkers, in order; H or OH if unused. Where a SMILES comes first, the peptide text is derived from it. Bridges are numbered along the chain shown (N, C = ends). [ ]: non-standard residue; d: D form. The star is where a group is joined. X1 = COc1cc2cc(c1Cl)N(C)C(=O)C[C@H](OC(=O)[C@H](C)N(C)C(=O)CCSSC(C)CCC(=O)*)[C@]1(C)O[C@H]1[C@H](C)[C@@H]1C[C@@](O)(NC(=O)O1)[C@H](OC)/C=C/C=C(\C)C2; 1Nal = N[C@@H](Cc1cccc2ccccc12)C(=O)O; TBMB = c1c(C[*:1])cc(C[*:3])cc1C[*:2]; Tle = CC(C)(C)[C@H](N)C(=O)O; βAla = NCCC(=O)O; Sar = CNCC(=O)O

Tested on: EBC-1 xenograft
Assay: Efficacy of BT1718 in EBC-1 xenograft model (Example 1)
Type: in vivo, Mus Musculus
Set-up: key to Best response at 10 mg/kg: CR complete response; PR partial response
Settings: for Tumor Size (mm^3): Mean ± SEM
Procedure: The objective of this study was to evaluate the anti-tumor efficacy of BT1718 in EBC-1 xenograft model in female BALB/c nude mice.
The EBC-1 tumor cells were maintained in vitro as a monolayer culture in EMEM medium supplemented with 10% heat inactivated fetal bovine serum at 37° C. in an atmosphere of 5% CO2 in air. The tumor cells will be routinely subcultured twice weekly by trypsin-EDTA treatment. The cells growing in an exponential growth phase will be harvested and counted for tumor inoculation.
Each mouse was inoculated subcutaneously at the right flank with EBC-1 tumor cells (10×10^6) in 0.2 ml of PBS for tumor development. The animals were randomized and treatment was started when the average tumor volume reaches approximately 165 mm^3 for the efficacy study.
All the procedures related to animal handling, care and the treatment in the study were performed according to the guidelines of the Association for Assessment and Accreditation of Laboratory Animal Care (AAALAC). At the time of routine monitoring, the animals were daily checked for any effects of tumor growth and treatments on normal behavior such as mobility, food and water consumption (by looking only), body weight gain/loss (body weights were measured every day), eye/hair matting and any other abnormal effect as stated in the protocol. Death and observed clinical signs were recorded on the basis of the numbers of animals within each subset.
The major endpoint was to see if the tumor growth could be delayed or mice could be cured. Tumor size was measured three times weekly in two dimensions using a caliper, and the volume was expressed in mm^3 using the formula: V=0.5 a×b^2 where a and b are the long and short diameters of the tumor, respectively. The tumor size was then used for calculations of T/C value. The T/C value (in percent) is an indication of antitumor effectiveness; T and C are the mean volumes of the treated and control groups, respectively, on a given day.
TGI was calculated for each group using the formula: TGI (%)=[1−(Ti−T0)/(Vi−V0)]×100; Ti is the average tumor volume of a treatment group on a given day, T0 is the average tumor volume of the treatment group on the day of treatment start, Vi is the average tumor volume of the vehicle control group on the same day with Ti, and V0 is the average tumor volume of the vehicle group on the day of treatment start.
Summary statistics, including mean and the standard error of the mean (SEM), are provided for the tumor volume of each group at each time point.
Statistical analysis of difference in tumor volume among the groups was conducted on the data obtained at the best therapeutic time point after the final dose.
A one-way ANOVA was performed to compare tumor volume among groups, and when a significant F-statistics (a ratio of treatment variance to the error variance) was obtained, comparisons between groups were carried out with Games-Howell test. All data were analyzed using Prism. P<0.05 was considered to be statistically significant.

Compound: COc1cc2cc(c1Cl)N(C)C(=O)C[C@H](OC(=O)[C@H](C)N(C)C(=O)CCSSC(C)CCC(=O)NCCC(=O)N(C)CC(=O)N(C)CC(=O)N(C)CC(=O)N(C)CC(=O)N(C)CC(=O)N(C)CC(=O)N(C)CC(=O)N(C)CC(=O)N(C)CC(=O)N(C)CC(=O)N[C@@H](C)C(=O)N[C@H]1CSCc3cc4cc(c3)CSC[C@H](NC(=O)[C@@H](C)NC(=O)[C@H](Cc3cccc5ccccc35)NC(=O)[C@H](CCC(=O)O)NC(=O)[C@H](CC(N)=O)NC(=O)[C@@H](C)NC1=O)C(=O)N[C@@H](CCC(=O)O)C(=O)N[C@@H](CC(=O)O)C(=O)N[C@@H](Cc1ccccc1)C(=O)N[C@@H](Cc1ccc(O)cc1)C(=O)N[C@@H](CC(=O)O)C(=O)N[C@@H](C(C)(C)C)C(=O)N[C@H](C(N)=O)CSC4)[C@]1(C)O[C@H]1[C@H](C)[C@@H]1C[C@@](O)(NC(=O)O1)[C@H](OC)/C=C/C=C(\C)C2 (some centres unmarked) [BT1718] ({X1-βAla}-[Sar][Sar][Sar][Sar][Sar][Sar][Sar][Sar][Sar][Sar]AC[dA]NE[1Nal][dA]CEDFYD[Tle]C-NH2; linker 12-18-25 via TBMB (inferred))
- Tumor Volume (4.5 mpk biw, day 21): 526 ± 95 mm^3
- Body Weight (9 mpk qw, day 0): 24.0 ± 0.4 g
- Body Weight (% Change) (9 mpk qw, day 0): 0.0%
- Tumor Volume (9 mpk qw, day 0): 163 ± 19 mm^3
- Body Weight (9 mpk qw, day 2): 23.2 ± 0.6 g
- Body Weight (% Change) (9 mpk qw, day 2): −3.4 ± 0.9%
- Tumor Volume (9 mpk qw, day 2): 182 ± 25 mm^3
- Body Weight (9 mpk qw, day 4): 23.8 ± 0.5 g
- Body Weight (% Change) (9 mpk qw, day 4): −0.7 ± 1.8%
- Tumor Volume (9 mpk qw, day 4): 200 ± 28 mm^3
- Body Weight (9 mpk qw, day 7): 24.7 ± 0.2 g
- Body Weight (% Change) (9 mpk qw, day 7): 2.8 ± 0.6%
- Tumor Volume (9 mpk qw, day 7): 202 ± 64 mm^3
- Body Weight (9 mpk qw, day 9): 23.8 ± 0.5 g
- Body Weight (% Change) (9 mpk qw, day 9): −1.1 ± 0.7%
- Tumor Volume (9 mpk qw, day 9): 187 ± 70 mm^3
- Body Weight (9 mpk qw, day 11): 24.7 ± 0.4 g
- Body Weight (% Change) (9 mpk qw, day 11): 2.8 ± 0.9%
- Tumor Volume (9 mpk qw, day 11): 164 ± 61 mm^3
- Body Weight (9 mpk qw, day 14): 24.9 ± 0.4 g
- Body Weight (% Change) (9 mpk qw, day 14): 3.7 ± 0.8%
- T/C (%) (9 mpk qw, day 14): 12%
- TGI (%) (9 mpk qw, day 14): 101%
- Tumor Volume (9 mpk qw, day 14): 154 ± 72 mm^3
- Tumor Size (mm^3) (9 mpk qw, day 14): 154 ± 72 mm^3
- Body Weight (9 mpk qw, day 16): 24.6 ± 0.2 g
- Body Weight (% Change) (9 mpk qw, day 16): 2.3 ± 0.6%
- Tumor Volume (9 mpk qw, day 16): 186 ± 83 mm^3
- Body Weight (9 mpk qw, day 18): 24.8 ± 0.2 g
- Body Weight (% Change) (9 mpk qw, day 18): 3.2 ± 0.8%
- Tumor Volume (9 mpk qw, day 18): 245 ± 119 mm^3
- Body Weight (9 mpk qw, day 21): 24.8 ± 0.2 g
- Body Weight (% Change) (9 mpk qw, day 21): 3.1 ± 1.0%
- Tumor Volume (9 mpk qw, day 21): 320 ± 153 mm^3
- Body Weight (10 mpk tiw, day 0): 24.2 ± 0.4 g
- Body Weight (% Change) (10 mpk tiw, day 0): 0.0%
- Tumor Volume (10 mpk tiw, day 0): 167 ± 11 mm^3
- Body Weight (10 mpk tiw, day 2): 23.2 ± 0.6 g
- Body Weight (% Change) (10 mpk tiw, day 2): −4.0 ± 1.3%
- Tumor Volume (10 mpk tiw, day 2): 216 ± 21 mm^3
- Body Weight (10 mpk tiw, day 4): 23.7 ± 0.5 g
- Body Weight (% Change) (10 mpk tiw, day 4): −2.1 ± 0.9%
- Tumor Volume (10 mpk tiw, day 4): 205 ± 24 mm^3
- Body Weight (10 mpk tiw, day 7): 22.7 ± 0.6 g
- Body Weight (% Change) (10 mpk tiw, day 7): −6.2 ± 0.8%
- Tumor Volume (10 mpk tiw, day 7): 114 ± 10 mm^3
- Body Weight (10 mpk tiw, day 9): 23.1 ± 0.4 g
- Body Weight (% Change) (10 mpk tiw, day 9): −4.4 ± 0.3%
- Tumor Volume (10 mpk tiw, day 9): 45 ± 4 mm^3
- Body Weight (10 mpk tiw, day 11): 22.9 ± 0.6 g
- Body Weight (% Change) (10 mpk tiw, day 11): −5.2 ± 1.1%
- Tumor Volume (10 mpk tiw, day 11): 16 ± 3 mm^3
- Body Weight (10 mpk tiw, day 14): 23.8 ± 0.5 g
- Body Weight (% Change) (10 mpk tiw, day 14): −1.6%
- T/C (%) (10 mpk tiw, day 14): 0%
- TGI (%) (10 mpk tiw, day 14): 115%
- Tumor Volume (10 mpk tiw, day 14): 0 ± 0 mm^3
- Tumor Size (mm^3) (10 mpk tiw, day 14): 0 ± 0 mm^3
- Body Weight (15 mpk biw, day 0): 23.7 ± 0.3 g
- Body Weight (% Change) (15 mpk biw, day 0): 0.0%
- Tumor Volume (15 mpk biw, day 0): 161 ± 12 mm^3
- Body Weight (15 mpk biw, day 2): 22.7 ± 0.4 g
- Body Weight (% Change) (15 mpk biw, day 2): −4.2 ± 0.6%
- Tumor Volume (15 mpk biw, day 2): 173 ± 11 mm^3
- Body Weight (15 mpk biw, day 4): 22.6 ± 0.3 g
- Body Weight (% Change) (15 mpk biw, day 4): −4.5 ± 0.3%
- Tumor Volume (15 mpk biw, day 4): 136 ± 10 mm^3
- Body Weight (15 mpk biw, day 7): 22.8 ± 0.4 g
- Body Weight (% Change) (15 mpk biw, day 7): −3.7 ± 2.5%
- Tumor Volume (15 mpk biw, day 7): 79 ± 1 mm^3
- Body Weight (15 mpk biw, day 9): 22.7 ± 0.2 g
- Body Weight (% Change) (15 mpk biw, day 9): −4.3 ± 1.7%
- Tumor Volume (15 mpk biw, day 9): 36 ± 2 mm^3
- Body Weight (15 mpk biw, day 11): 23.4 ± 0.3 g
- Body Weight (% Change) (15 mpk biw, day 11): −1.2 ± 0.3%
- Tumor Volume (15 mpk biw, day 11): 12 ± 0 mm^3
- Body Weight (15 mpk biw, day 14): 23.7 ± 0.5 g
- Body Weight (% Change) (15 mpk biw, day 14): 0.2 ± 1.4%
- T/C (%) (15 mpk biw, day 14): 0%
- TGI (%) (15 mpk biw, day 14): 115%
- Tumor Volume (15 mpk biw, day 14): 0 ± 0 mm^3
- Tumor Size (mm^3) (15 mpk biw, day 14): 0 ± 0 mm^3
- Body Weight (30 mpk qw, day 0): 24.6 ± 0.6 g
- Body Weight (% Change) (30 mpk qw, day 0): 0.0%
- Tumor Volume (30 mpk qw, day 0): 166 ± 10 mm^3
- Body Weight (30 mpk qw, day 2): 20.9 ± 0.3 g
- Body Weight (% Change) (30 mpk qw, day 2): −14.9 ± 2.2%
- Tumor Volume (30 mpk qw, day 2): 166 ± 22 mm^3
- Body Weight (30 mpk qw, day 4): 21.9 ± 1.0 g
- Body Weight (% Change) (30 mpk qw, day 4): −10.8 ± 4.3%
- Tumor Volume (30 mpk qw, day 4): 128 ± 6 mm^3
- Body Weight (30 mpk qw, day 7): 23.1 ± 1.0 g
- Body Weight (% Change) (30 mpk qw, day 7): −6.2 ± 3.5%
- Tumor Volume (30 mpk qw, day 7): 89 ± 4 mm^3
- Body Weight (30 mpk qw, day 9): 20.8 ± 1.0 g
- Body Weight (% Change) (30 mpk qw, day 9): −15.5 ± 3.4%
- Tumor Volume (30 mpk qw, day 9): 47 ± 3 mm^3
- Body Weight (30 mpk qw, day 11): 22.1 ± 0.9 g
- Body Weight (% Change) (30 mpk qw, day 11): −10.3 ± 3.3%
- Tumor Volume (30 mpk qw, day 11): 18 ± 2 mm^3
- Body Weight (30 mpk qw, day 14): 24.0 ± 1.0 g
- Body Weight (% Change) (30 mpk qw, day 14): −2.4 ± 3.2%
- T/C (%) (30 mpk qw, day 14): 0%
- TGI (%) (30 mpk qw, day 14): 115%
- Tumor Volume (30 mpk qw, day 14): 0 ± 0 mm^3
- Tumor Size (mm^3) (30 mpk qw, day 14): 0 ± 0 mm^3
- Best response at 10 mg/kg (EBC-1, 10 mg/kg): CR
- Minimally Effective Dose IV BIW (EBC-1, dose leading to tumor-stasis): <10 mg/kg
- body weight effect (other groups (all except 30 mg/kg qw)): maintained their bodyweight well
- treatment effect (same total dose, schedules from daily to a single weekly dose): Effective treatment
